Positions count from the first letter of the chain named.
B1: 1JRH KI47A (protein, UniProt P15260 18-245, looked up, variant K47A)
extracellular domain: EMGTADLGPSSVPTPTNVTIESYNMNPIVYWEYQIMPQVPVFTVEVANYGVKNSEWIDACINISHHYCNISDHVGDPSNSLWVRVKARVGQKESAYAKSEEFAVCRDGKIGPPKLDIRKEEKQIMIDIFHPSVFVNGDEQEVDYDPETTCYIRVYNVYVRMNGSEIQYKILTQKEDDCDEIQCQLAIPVSSLNSQYCVSAEGVLHVWGVTTEKSKEVCITIFNSSIKG
modifications: extracellular domain
B2: 1JRH KI52A (protein, UniProt P15260 18-245, looked up, variant K52A)
extracellular domain: B1 extracellular domain with A47K, K52A
modifications: extracellular domain
B3: 1JRH RI84A (protein, UniProt P15260 18-245, looked up, variant R84A)
extracellular domain: B1 extracellular domain with A47K, R84A
modifications: extracellular domain
B4: 1JRH KI98A (protein, UniProt P15260 18-245, looked up, variant K98A)
extracellular domain: B1 extracellular domain with A47K, K98A
modifications: extracellular domain
B5: 1KTZ RA25A (protein, UniProt P10600 301-412, looked up, variant R25A)
Transforming growth factor …: ALDTNYCFRNLEENCCVRPLYIDFAQDLGWKWVHEPKGYYANFCSGPCPYLRSADTTHSTVLGLYNTLNPEASASPCCVPQDLEPLTILYYVGRTPKVEQLSNMVVKSCKCS
B6: 1KTZ RA94A (protein, UniProt P10600 301-412, looked up, variant R94A)
Transforming growth factor …: B5 Transforming growth factor … with A25R, R94A
B7: 2PCC DA34A (protein, UniProt P00431 68-361, looked up, variant D34A)
Cytochrome c peroxidase, …: TTPLVHVASVEKGRSYEDFQKVYNAIALKLREDAEYDNYIGYGPVLVRLAWHTSGTWDKHDNTGGSYGGTYRFKKEFNDPSNAGLQNGFKFLEPIHKEFPWISSGDLFSLGGVTAVQEMQGPKIPWRCGRVDTPEDTTPDNGRLPDADKDADYVRTFFQRLNMNDREVVALMGAHALGKTHLKNSGYEGPWGAANNVFTNEFYLNLLNEDWKLEKNDANNEQWDSKSGYMMLPTDYSLIQDPKYLSIVKEYANDQDKFFKDFSKAFEKLLENGITFPKDAPSPFIFKTLEEQGL
B8: 2PCC EA290A (protein, UniProt P00431 68-361, looked up, variant E290A)
Cytochrome c peroxidase, …: B7 Cytochrome c peroxidase, … with A34D, E290A
B9: 1A22 IB305A (protein, UniProt P10912 19-264, looked up, variant I105A)
extracellular domain: FSGSEATAAILSRAPWSLQSVNPGLKTNSSKEPKFTKCRSPERETFSCHWTDEVHHGTKNLGPIQLFYTRRNTQEWTQEWKECPDYVSAGENSCYFNSSFTSIWAPYCIKLTSNGGTVDEKCFSVDEIVQPDPPIALNWTLLNVSLTGIHADIQVRWEAPRNADIQKGWMVLEYELQYKEVNETKWKMMDPILTTSVPVYSLKVDKEYEVRVRSKQRNSGNYGEFSEVLYVTLPQMSQFTCEEDFY
modifications: extracellular domain
B10: 1EMV EA32A (protein, UniProt P13479 1-86, looked up, variant E32A)
Colicin-E9 immunity protein: MELKHSISDYTEAEFLQLVTTICNADTSSEEALVKLVTHFEEMTEHPSGSDLIYYPKEGDDDSPSGIVNTVKQWRAANGKSGFKQG
B11: 1EMV EA41A (protein, UniProt P13479 1-86, looked up, variant E41A)
Colicin-E9 immunity protein: B10 Colicin-E9 immunity protein with A32E, E41A
B12: 1EMV HA46A (protein, UniProt P13479 1-86, looked up, variant H46A)
Colicin-E9 immunity protein: B10 Colicin-E9 immunity protein with A32E, H46A
B13: 1EMV DA51A (protein, UniProt P13479 1-86, looked up, variant D51A)
Colicin-E9 immunity protein: B10 Colicin-E9 immunity protein with A32E, D51A
B14: 1EMV DA60A (protein, UniProt P13479 1-86, looked up, variant D60A)
Colicin-E9 immunity protein: B10 Colicin-E9 immunity protein with A32E, D60A
B15: 1IAR EA19A (protein, UniProt P05112 25-153, looked up, variant E19A)
Interleukin-4: HKCDITLQEIIKTLNSLTAQKTLCTELTVTDIFAASKNTTEKETFCRAATVLRQFYSHHEKDTRCLGATAQQFHRHKQLIRFLKRLDRNLWGLAGLNSCPVKEANQSTLENFLERLKTIMREKYSKCSS
B16: 1IAR KA77A (protein, UniProt P05112 25-153, looked up, variant K77A)
Interleukin-4: B15 Interleukin-4 with A19E, K77A
B17: 1IAR RA81A (protein, UniProt P05112 25-153, looked up, variant R81A)
Interleukin-4: B15 Interleukin-4 with A19E, R81A
B18: 1IAR KA84A (protein, UniProt P05112 25-153, looked up, variant K84A)
Interleukin-4: B15 Interleukin-4 with A19E, K84A
B19: 1IAR RA85A (protein, UniProt P05112 25-153, looked up, variant R85A)
Interleukin-4: B15 Interleukin-4 with A19E, R85A
B20: 1A4Y WA261A (protein, UniProt P13489 2-461, looked up, variant W261A)
Ribonuclease inhibitor: SLDIQSLDIQCEELSDARWAELLPLLQQCQVVRLDDCGLTEARCKDISSALRVNPALAELNLRSNELGDVGVHCVLQGLQTPSCKIQKLSLQNCCLTGAGCGVLSSTLRTLPTLQELHLSDNLLGDAGLQLLCEGLLDPQCRLEKLQLEYCSLSAASCEPLASVLRAKPDFKELTVSNNDINEAGVRVLCQGLKDSPCQLEALKLESCGVTSDNCRDLCGIVASKASLRELALGSNKLGDVGMAELCPGLLHPSSRLRTLAIWECGITAKGCGDLCRVLRAKESLKELSLAGNELGDEGARLLCETLLEPGCQLESLWVKSCSFTAACCSHFSSVLAQNRFLLELQISNNRLEDAGVRELCQGLGQPGSVLRVLWLADCDVSDSSCSSLAATLLANHSLRELDLSNNCLGDAGILQLVESVRQPGCLLEQLVLYDIYWSEEMEDRLQALEKDKPSLRVIS
B21: 1A4Y WA263A (protein, UniProt P13489 2-461, looked up, variant W263A)
Ribonuclease inhibitor: B20 Ribonuclease inhibitor with A261W, W263A
B22: 1A4Y WA318A (protein, UniProt P13489 2-461, looked up, variant W318A)
Ribonuclease inhibitor: B20 Ribonuclease inhibitor with A261W, W318A
B23: 1A4Y WA375A (protein, UniProt P13489 2-461, looked up, variant W375A)
Ribonuclease inhibitor: B20 Ribonuclease inhibitor with A261W, W375A
B24: 1A4Y YA434A (protein, UniProt P13489 2-461, looked up, variant Y434A)
Ribonuclease inhibitor: B20 Ribonuclease inhibitor with A261W, Y434A
B25: 1A22 EB291A (protein, UniProt P10912 19-264, looked up, variant E91A)
extracellular domain: B9 extracellular domain with E91A, A105I
modifications: extracellular domain

system: PPIs of the SKEMPI data set (by PDBID); test: not given; conditions: sheet sortedByGroup, r_group DERKH; complex given by PDBID; ref SKEMPI; cited from earlier work

| Molecule | sk_ddG_kJ (SKEMPI experimental ΔΔG, single mutation to alanine) [kJ] |
| --- | --- |
| B1 | 16.11 |
| B2 | 15.86 |
| B3 | 4.31 |
| B4 | 2.80 |
| B5 | 6.19 |
| B6 | 12.05 |

same assay, conditions: single mutation to alanine in the complex of the given PDBID; ref SKEMPI; cited from earlier work

| Molecule | sk_ddG_kJ (SKEMPI experimental ΔΔG of binding, mutation to alanine) [kJ] |
| --- | --- |
| B7 | -3.81 |
| B8 | 25.90 |
| B9 | 0.54 |

same assay, conditions: single mutation to alanine, complex by PDBID; sheet sortedByGroup, r_group DERKH; ref SKEMPI; cited from earlier work

| Molecule | sk_ddG_kJ (SKEMPI experimental ΔΔG, mutation to alanine) [kJ] |
| --- | --- |
| B10 | 0.92 |
| B11 | 8.70 |
| B12 | 3.47 |
| B13 | 24.77 |
| B14 | 2.13 |
| B15 | -1.34 |
| B16 | 0.63 |
| B17 | 2.01 |
| B18 | 1.46 |
| B19 | 1.80 |

same assay, conditions: single mutation to alanine, sheet sortedByGroup, r_group FAMILYVW; ref SKEMPI; cited from earlier work

| Molecule | sk_ddG_kJ (SKEMPI experimental ΔΔG) [kJ] |
| --- | --- |
| B20 | 0.38 |
| B21 | 4.85 |
| B22 | 6.19 |
| B23 | 4.31 |
| B24 | 13.64 |

same assay, conditions: single mutation to alanine; PPI given by PDBID; sheet sortedByGroup, r_group DERKH; ref SKEMPI; cited from earlier work

| Molecule | sk_ddG_kJ (SKEMPI experimental ΔΔG, mutation to alanine) [kJ] |
| --- | --- |
| B25 | 0.75 |

system: PPIs of the SKEMPI data set (by PDBID); test: SKEMPI experimental ΔΔG, single mutations to alanine; format: binding; conditions: Positive / Neutral / Negative by ΔΔG threshold 4.184 kJ/mol; ref SKEMPI

| Molecule | sk_class (class of the SKEMPI experimental ΔΔG) |
| --- | --- |
| B7 | Neutral (neutral (little effect) 4.184 kJ/mol < ΔΔG > −4.184 kJ/mol) |
| B8 | Positive (positive (a hot residue) ΔΔG ≥ 4.184 kJ/mol) |
| B9 | Neutral (neutral (little effect) 4.184 kJ/mol < ΔΔG > −4.184 kJ/mol) |

same assay, conditions: class by the 4.184 kJ/mol threshold; r_group DERKH

| Molecule | sk_class (class of the SKEMPI experimental ΔΔG) |
| --- | --- |
| B10 | Neutral (neutral (little effect) 4.184 kJ/mol < ΔΔG > −4.184 kJ/mol) |
| B11 | Positive (positive (a hot residue) ΔΔG ≥ 4.184 kJ/mol) |
| B12 | Neutral (neutral (little effect) 4.184 kJ/mol < ΔΔG > −4.184 kJ/mol) |
| B13 | Positive (positive (a hot residue) ΔΔG ≥ 4.184 kJ/mol) |
| B14 | Neutral (neutral (little effect) 4.184 kJ/mol < ΔΔG > −4.184 kJ/mol) |
| B15 | Neutral (neutral (little effect) 4.184 kJ/mol < ΔΔG > −4.184 kJ/mol) |
| B16 | Neutral (neutral (little effect) 4.184 kJ/mol < ΔΔG > −4.184 kJ/mol) |
| B17 | Neutral (neutral (little effect) 4.184 kJ/mol < ΔΔG > −4.184 kJ/mol) |
| B18 | Neutral (neutral (little effect) 4.184 kJ/mol < ΔΔG > −4.184 kJ/mol) |
| B19 | Neutral (neutral (little effect) 4.184 kJ/mol < ΔΔG > −4.184 kJ/mol) |

same assay, conditions: class by ΔΔG threshold 4.184 kJ/mol; ref SKEMPI

| Molecule | sk_class (class of the SKEMPI experimental ΔΔG) |
| --- | --- |
| B25 | Neutral (neutral (little effect) 4.184 kJ/mol < ΔΔG > −4.184 kJ/mol) |

same assay, conditions: class of the SKEMPI experimental ΔΔG

| Molecule | sk_class |
| --- | --- |
| B1 | Positive (positive (a hot residue) ΔΔG ≥ 4.184 kJ/mol) |
| B2 | Positive (positive (a hot residue) ΔΔG ≥ 4.184 kJ/mol) |
| B3 | Positive (positive (a hot residue) ΔΔG ≥ 4.184 kJ/mol) |
| B4 | Neutral (neutral (little effect) 4.184 kJ/mol < ΔΔG > −4.184 kJ/mol) |
| B5 | Positive (positive (a hot residue) ΔΔG ≥ 4.184 kJ/mol) |
| B6 | Positive (positive (a hot residue) ΔΔG ≥ 4.184 kJ/mol) |
| B20 | Neutral (neutral (little effect) 4.184 kJ/mol < ΔΔG > −4.184 kJ/mol) |
| B21 | Positive (positive (a hot residue) ΔΔG ≥ 4.184 kJ/mol) |
| B22 | Positive (positive (a hot residue) ΔΔG ≥ 4.184 kJ/mol) |
| B23 | Positive (positive (a hot residue) ΔΔG ≥ 4.184 kJ/mol) |
| B24 | Positive (positive (a hot residue) ΔΔG ≥ 4.184 kJ/mol) |

From publication PMC6804253, “Predicting and Experimentally Validating Hot-Spot Residues at Protein–Protein Interfaces” (ACS Chemical Biology, 2019)
